The chains are these.
B1: Eterna 7733059 (Exclusion - Tryptophan B) (ssRNA)
RNA: GGAGUCGGCACGGCCGCCACUGCGGUGGUGUGACAUGAGGAUCACCCAUGUUGUCAUGCGGCCCUUAGGACCGGGUGGCGGUUCC
B2: Eterna 15995 (Sensor v3, turn-off variant 1) (ssRNA)
RNA: UAUUAGCAAGCAAGGUCCCACAUGAGGAUCACCCAUGUGCUCGUCUUAUAAGGUACUGUGACGAAAGUCACGGUACC
B3: Eterna 10232 (Sensor for hsa-mir-208a) (ssRNA)
RNA: AACCAACAAAUAAAACAAGCGUGCUCGUCACAUGAGGAUCACCCAUGUUUAAGCGCUAUUCCUACUUCCUCAGCGCC
B4: Eterna 10111 (Sensor for hsa-mir-208a version 2) (ssRNA)
RNA: AAUUAUUAACAUGAGGAUCACCCAUGUAAAACAUGGAUUAACAAGCCUUUUCGUUUUUGCUCGUCUUAUAUUAUUAA
B5: Eterna 7687214 (Same State - Theophylline B) (ssRNA)
RNA: UCGUGUAUAUCGGAUACCAGUGAAAACGAUACAUGAGGAUCACCCAUGUGAGUUGAUGUACACCCUUGGCAGCUGUAUAUAUCUA
B6: Eterna 7618834 (Exclusion - Theophylline A) (ssRNA)
RNA: AGACAUGAGGAUCACCCAUGUAGUAUGGAUACCAGAUCCAGAUUUAUCCCUUGGCAGCUGUGGUACAGCGUUGGAUCGCUCCUAG
B7: Eterna 7636321 (Exclusion - Theophylline B) (ssRNA)
RNA: CAUUAUGUAACUGAUACCAGUGUACUGACAUGAGGAUCACCCAUGUUGGGUUUUGUUGUACACCCUUGGCAGCAGAAUCAUAAUG
B8: Eterna 7629678 (Same State - Theophylline A) (ssRNA)
RNA: UUCUACAUGAGGAUCACCCAUGUAAACGAUACCAGACGAGUAUUAGUCCCUUGGCAGCGUAGAGUGUCGUUUAUAGUAGGAUACC
B9: Eterna 7639661 (Exclusion - Theophylline B) (ssRNA)
RNA: AUUUAUAGUUGUGAUACCAGACUUACAUGAGGAUCACCCAUGUUACUUAAAUGUUUUGAUGUCCCUUGGCAGCACUGUUUUUUUA
B10: Eterna 5956610 (Same State NG 2) (ssRNA)
RNA: UGGCUGAGUCGAGGAUAUGAUCUUCAUAUAAUAACAUGAGGAUCACCCAUGUAUAAUUACAUGGAUCAGAAGGCGACUCAGCCA
B11: Eterna 5921244 (Exclusion NG 2) (ssRNA)
RNA: AUUAUAUAGGAAGGAUAUAGAAUAUUAUUUUAACAUGAGGAUCACCCAUGUAACCUUAUGUGUAGCUAGAAGGUCCAUUUGUUA
B12: Eterna 7755473 (Exclusion - Arginine A) (ssRNA)
RNA: UCCUUUGUUGCCAGUGAUGUUGGACAGGAAGGAGCGGGCAUAAGCCCAGGUAGGUCGCCUGUCAACUUUCUUAUAGCCCGAAGGU
B13: Eterna 6036671 (Sensor, turn-off variant 1) (ssRNA)
RNA: GUCCUGGAUUAUCACAAGCACAUGAGGAUCACCCAUGUCAUGGGUGGAUCCCUAAAUGGGUAUUCUGCUCGUCUUAU
B14: Eterna 1200 (Exclusion - Tryptophan A) (ssRNA)
RNA: UGGAGUGCCUGGUCGUCACUAUGCCAACCACGAGGACCGGUACGGCCGCCACUCGUGAGGGAUAUUCAGAAAGUGAUGUUUUUUG
B15: Eterna 6395988 (Inverted Same State NG 2) (ssRNA)
RNA: GUCUGAUUGUAGAAGGUACUUAAUACUCAUGUAACAUGAGGAUCACCCAUGUAUCAACAAUAUUGUAAGGAUAUACAAAUCUCA
B16: Eterna 7745661 (Exclusion - FMN B) (ssRNA)
RNA: AGACUACUGAUAGGAUAUAACAUCCUAGUCGUAUACCGAAAGGUAUACGAUUCCCUUCUAGUGAUGUUAGAAGGGUCGGUAGUCA
B17: Eterna 7690517 (Same State - Theophylline B) (ssRNA)
RNA: AAUUUAUUAUCUGAUACCAGACUUUUUCUUGUUUAUAAGUCAAGUGAUGUUUGACUUUUAGUCCCUUGGCAGCAGUAUUUUUUAA
B18: Eterna 7678744 (Same State - Tryptophan A) (ssRNA)
RNA: ACAGGAUCGAAAGAUCCUGAGCAGUCAAAACGAGGACCGGUACGGCCGCCACUCGAAUAAGAGAGUGAUGUUCUCGACUGCAAAA
B19: Eterna 7740407 (Exclusion - Tryptophan A) (ssRNA)
RNA: AAGCAGUCACUCGAAACCAUCGAAGAUGGACGAGGACCGGUACGGCCGCCACUCGGAGUGAUGUUCCGAAGACUGCAAAAUAAAA
B20: Eterna 7666983 (Same State - Theophylline A) (ssRNA)
RNA: AAUAACAUGAGGAUCACCCAUGUAAAAGAUACCAGGGUGAUGAUCCUCCCUUGGCAGCUUACAGCUGAUCAAUAAGAUCGGCUGA
B21: Eterna 6120996 (Same State NG 1) (ssRNA)
RNA: GGUCCAGCAUGAGGAUAUGGCACCUUAUUGGUGCCAGAAGGCAUGUCUAUAGACAUGAGGAUCACCCAUGUAAUAAAUUGGACC
B22: Eterna 6444365 (Inverted Same State NG 3) (ssRNA)
RNA: AGAUUUGUACAUGAGGAUCACCCAUGUUAAUAGGUGGUUGUCAGAAGGCAUUAUUAGAGUUUUAAUGAGGAUAUGAAUUUACAA
B23: Eterna 12785 (Exclusion 4) (ssRNA)
RNA: CUCGUGUGAGGAUAUCUAUUCCACGGACGGGAGUCUUGAAGAGAGAAGGCACAUGAGGAUCACCCAUGUAAUAA
B24: Eterna 5997882 (Exclusion 5) (ssRNA)
RNA: CAGCCCUGAGGAUAUCCCUACUUGUACAUGAGGAUCACCCAUGUCCUCCUCCGGGCUUCGGGAGAAGGCAGGUCUC

One data set addresses T1, MS2 coat protein, dlFG mutant (Escherichia phage MS2, UniProt P03612, del68-81insG). Put plainly: 4 mM Mg2+; L-tryptophan 2.4 mM; RNA-MaP array; 100 mM Tris-HCl pH 7.5, 80 mM KCl, 4 mM MgCl2, 0.1 mg/mL BSA, 1 mM DTT, 0.01 mg/mL yeast tRNA, 0.01% Tween-20; protein 1.5 nM to 3 uM; 37 C (Table S3). The settings on record: chain copies: 2; label: tethered by stalled RNA polymerase.
B1: binding was put at a Kd of 57 nM.

A further data set has as its target T1, MS2 coat protein, dlFG mutant. Put plainly: 4 mM Mg2+; miR-208a RNA 100 nM (AU…UUGU); RNA-MaP array; 100 mM Tris-HCl pH 7.5, 80 mM KCl, 4 mM MgCl2, 0.1 mg/mL BSA, 1 mM DTT, 0.01 mg/mL yeast tRNA, 0.01% Tween-20; protein 1.5 nM to 3 uM; 37 C (Table S3). The settings on record: chain copies: 2; label: tethered by stalled RNA polymerase.
Consider B2, for which binding was characterised by a dissociation constant (Kd) of 426 nM. Still for that read-out and setting: in the case of B3 it was 30.4 nM. Still for that read-out and setting: to B4 belongs 135 nM.

Another data set has the same target. Put plainly: 4 mM Mg2+; theophylline 2 mM; RNA-MaP array; 100 mM Tris-HCl pH 7.5, 80 mM KCl, 4 mM MgCl2, 0.1 mg/mL BSA, 1 mM DTT, 0.01 mg/mL yeast tRNA, 0.01% Tween-20; protein 1.5 nM to 3 uM; 37 C (Table S3). The settings on record: chain copies: 2; label: tethered by stalled RNA polymerase.
For the molecule B5, the affinity, expressed as Kd, was 15.1 nM. Still for that read-out and setting: in the case of B6 it was 29.4 nM. The same measure, in the same setting: to B7 belongs 90.9 nM; to B8, 28.4 nM.

As to B9, binding was characterised by a dissociation constant (Kd) of 14 nM.

For the next data set the target is unchanged. Put plainly: 4 mM Mg2+; no ligand; RNA-MaP array; 100 mM Tris-HCl pH 7.5, 80 mM KCl, 4 mM MgCl2, 0.1 mg/mL BSA, 1 mM DTT, 0.01 mg/mL yeast tRNA, 0.01% Tween-20; protein 1.5 nM to 3 uM; 37 C (Table S3). Particulars: chain copies: 2; label: tethered by stalled RNA polymerase.
Turning to B10, the Kd (in general, a measure of binding affinity in units of concentration) worked out at 662 nM. Still for that read-out and setting: in the case of UUUAAUGAGGGAACUGCUUAGUUU (ssRNA) [Eterna 5 (OligoOldBControl)] it was over 3000 nM. In the case of B11, binding was characterised by a dissociation constant (Kd) of 224 nM.

For B12, the Kd is over 3000 nM. Molecule UUUGUUGCCAGUGAUGUUGGCAACUUU (ssRNA) [Eterna 11 (K4-alt7bp_control)] had a Kd of over 3000 nM. The molecule B13 yielded an equilibrium dissociation constant (Kd) of 481 nM.

B14 had a Kd of over 3000 nM. Consider B15, for which the Kd turned out to be 576 nM.

In turn, B16 displayed a dissociation constant Kd of over 3000 nM.

As for B17, the Kd is over 3000 nM. Molecule B18 returned a Kd of over 3000 nM. The molecule B19 had a Kd of over 3000 nM. The same measure, in the same setting: to B20 belongs 192 nM; to B21, 646 nM.

With B22, the Kd turned out to be 974 nM. The same measure, in the same setting: in the case of B23 it was 166 nM.

Another data set has the same target. Put plainly: 4 mM Mg2+; FMN 200 uM; RNA-MaP array; 100 mM Tris-HCl pH 7.5, 80 mM KCl, 4 mM MgCl2, 0.1 mg/mL BSA, 1 mM DTT, 0.01 mg/mL yeast tRNA, 0.01% Tween-20; protein 1.5 nM to 3 uM; 37 C (Table S3). The settings on record: chain copies: 2; label: tethered by stalled RNA polymerase.
Molecule B24 displayed a Kd of 18.5 nM.

These data come from article PMC9170038, “Crowdsourced RNA design discovers diverse, reversible, efficient, self-contained molecular switches”.
